Laboratory results as given in US11492376B2, “Toxoplasma gondii GRA8-derived recombinant peptides and composition for preventing or treating cancer comprising the same” (Industry—University Cooperation Foundation Hanyang …, priority 2019, dated 2022).

How the values were obtained:
HCT116 cells [1] = assay: MTT assay of cell viability, HCT116 cells; type: cell-based, human
Experimental: FIGS. 1A, 1B and 1C: confirms that rGRA8 treatment increases HCT116 cell death by mitochondria pathways [(A and B). Various cancer cells were incubated with WT rGRA8 (20 μg/ml) and its mutants for indicated times and then cell viability was measured by MTT analysis (upper) and αATP5A1, αSIRT3 or αActin immunoblotting (lower) was performed. […] The cells were incubated with WT rGRA8 for indicated times and subjected to IP with αLys-AC or αHis and IB with αATP5A1, αATP5C1, αSIRT3, αPGC-1, αPKCα or αActin. Data represents five independent experiments with similar results. Significant differences were determined by comparison with rVector treatment (** P<0.01; *** P<0.001)].
(§1) FIGS. 4A, 4B, 4C, 4D and 4E show HCT116 cell death by rATRAM-GRA8-M/AS-induced mitochondrial activation [(A and B) HCT116 cells were incubated with WT rGRA8 or rATRAM-GRA8-M/AS and its mutants for indicated times, and then cell viability was measured with an MTT assay. […] The cells were stimulated with rATRAM-GRA8-M/AS for 1 day and subjected to enzymatic activity of OXPHOS V, and (C) MitoTracker fluorescence signals were assessed by flow cytometry. (D) A bar graph indicates a mitochondrial mass (MFI), and (E) the mtDNA content of BMDM was measured by quantitative real-time PCR. The mtDNA content was normalized by nuclear DNA. Significant differences were determined by comparison with control treatment (** P<0.01; *** P<0.001). Data represents five independent experiments with similar results].
As described in Non-Patent Document 1, the cell viability for a non-treated group was measured by an MTT assay. After incubation for an indicated time, 5 mg/ml of a 3-(4,5-dimethyl thiazol-2-yl)-2,5-diphenyltetrazoliumbromide (MTT) solution was added to a medium, and the cells were further incubated for 4 hours. Subsequently, all of the medium was removed, the same volume of a dimethyl sulfoxide (DMSO) solution was added for 15 minutes to dissolve formazan. Using a UV/VIS spectrophotometer, each well of a plate was measured at 540 nm to measure relative cell viability.

complex V OXPHOS = target: T1, complex V OXPHOS (Homo sapiens, UniProt P25705); assay: Mitochondria complex V OXPHOS activity assay in HCT116 cells; type: cell-based
T1 construct: rATRAM-GRA8-M/AS enhanced complex V OXPHOS activity, mitochondrial mass and mitochondrial DNA content via SIRT3 and PKCα in HCT116 cells; endogenous in cells; host or cells: HCT116 cells
Experimental: as §1
The activity of complex V was measured using a MitoTox Complex V OXPHOS Activity Microplate Assay kit manufactured by Abcam (ab109907, MA, Cambridge) according to the manufacturer's instructions. The activity of complex V was measured by monitoring the change in absorbance at 340 nm for 1 hour at 30° C. Oligomycin (Sigma, 04876) was used as a positive control for the assay.

HCT116 cells [2] = assay: MitoTracker flow cytometry of mitochondrial mass in HCT116 cells; type: cell-based, human; settings: 1 day, via SIRT3 and PKCα
Experimental: as §1

[3] = Pharmacokinetics and drug distribution in HCT116 tumor-bearing mice (His immunoblotting of organs); type: in vivo, BALB/c mouse
Experimental: The […] were administered into the mouse by intraperitoneal injection once (left) or twice (right), and then the mouse was sacrificed on day 5. His expression was evaluated by immunoblotting (IB) in various organs from a mouse. The whole cell lysate was used for IB with anti-actin. Data represents four independent experiments with similar results. (B) The schematic diagram of an rGRA8 WT (upper)-treated xenograft model. […] The length and width of the tumors were measured using calipers, and a tumor volume was calculated every third day for 30 days. Individual tumor volumes from each mouse in each group were averaged and graphed over days after inoculation. Statistical significance was determined by two-way analysis of variance (ANOVA) with a Tukey's post-test; * P<0.05, *** P<0.001, compared with rVector. Each group included 10 mice. Data represents two independent experiments with similar results.

ATP5A1, SIRT3 and ATP5C1 = assay: Target binding and OXPHOS profile in xenograft tumor lysates; type: in vivo, nude mouse; settings: day 15
Experimental: The length and width of a tumor were measured using calipers every third day for 30 days. On day 15 after administration, the mice were euthanized, and the interaction with GRA8, acetylation levels of ATP5A1 or expression of OXPHOS was analyzed (A, lower). The representative images of tumors from mice treated with rATRAM-GRA8-M/AS or mutants on day 15 (right). […] Significant differences (* P<0.05; ** P<0.01; *** P<0.001) were determined by comparison with rVector. Each group included 10 mice. Data represents two independent experiments with similar results],
For immunoprecipitation, cells were obtained, and then lysed in an NP-40 buffer supplemented with a complete protease inhibitor cocktail (Roche). After pre-purification with A/G agarose beads at 4° C. for 1 hour, a whole cell lysate was used for immunoprecipitation with indicated antibodies. Generally, 1 to 4 μg of commercial antibodies were added to 1 ml of the cell lysate, and incubated at 4° C. for 8 to 12 hours. After the addition of the protein A/G agarose beads for 6 hours, the immunoprecipitate was washed with a lysis buffer several times and heated for 5 minutes to be eluted with an SDS loading buffer.
For immunoblotting, polypeptides were subjected to electrophoresis (PAGE) with an SDS-polyacrylamide gel, and then transferred to a PVDF membrane (Bio-Rad) for separation. Immunodetection was performed with a specific antibody. Antibody binding was visualized by chemiluminescence (ECL; Millipore) and detected by a Vilber chemiluminescence analyzer (Fusion SL 3; Vilber Lourmat).

[4] = tumor-bearing mice, intraperitoneal injection

B1: (GLAGLAGLLGLEGLLGLPLGLLEGLWLGLELEGN)2-GG-ATATTTTTTR-GG-YRFTVQTTQN (protein)
chain: GLAGLAGLLGLEGLLGLPLGLLEGLWLGLELEGNGLAGLAGLLGLEGLLGLPLGLLEGLWLGLELEGNGGATATTTTTTRGGYRFTVQTTQN
modifications: His tag; rATRAM-G8-M/AS
In the case of B1, the “fold improvement of IC50 compared with rGRA8 (cell death of cancer cell line)” value (HCT116 cells [1]; HCT116 cells) is reported as 200 fold, the “IC50 (HCT116 cell death)” value (HCT116 cells [1]; HCT116 cells, MTT (FIG. 4A)) is reported as 0.1 µg/mL and the “fold improvement of IC50 compared with rGRA8 (cell death of cancer cell line)” value (HCT116 cells [1]; HCT116 cells, listed as rATRAM-G8-M/AS) is reported as “approximately 200 fold”. For the same molecule, the “cell death in HCT116 cells” value (HCT116 cells [1]; dose response, MTT (FIG. 4A)) was “induced cell death in HCT116 cells in a dose-dependent manner”, the “complex V OXPHOS activity” value (complex V OXPHOS; HCT116 cells, 1 day, via SIRT3 and PKCα) was “enhanced” and the “mitochondrial activity (Oxphos V activity, mitochondrial mass and ATP production) in cancer cells” value (complex V OXPHOS; summary statement, FIG. 4) was “induced”. For the same molecule, the mitochondrial mass (HCT116 cells [2]) was “enhanced”, the cancer cell targetability ([3]; immunoblotting, FIG. 5) was “excellent cancer cell targetability” and the disappearance from tumor [3, 4] was “gradually disappeared by day 3”. For the same molecule, the “time the tumor location was maintained” value [3, 4] was “up to 2 days”, the “location of protein among organs” value ([3]; tumor-bearing mice, intraperitoneal injection, His immunoblotting) was “located in tumor cells” and the “ATP5A1 deacetylation level in tumor lysates” value (ATP5A1, SIRT3 and ATP5C1) was “increased”. For the same molecule, the “binding of rGRA8 to ATP5A1, SIRT3 and ATP5C1 in vivo” value (ATP5A1, SIRT3 and ATP5C1) was “significantly increased” and the “mitochondrial protein biosynthesis level in tumor lysates” value (ATP5A1, SIRT3 and ATP5C1) was “increased”.
